This note sets out measurements from publication PMC5707354 (Nature Communications, 2017).

Data set [1] addresses Cargo binding domain of myosin VI (CBD 1060-1253) (human). As to the kind of experiment: FRET or BRET; Alexa555-NMVITAIL titrated to FITC-CBD (1 uM); 25 C, 50 mM Tris-HCl pH 7.5, 150 mM NaCl, 1 mM DTT; quadratic binding fit.
For data set [2], the target named is N-terminal tail domain of myosin VI (NMVITAIL 814-1060) (human). The data set is described as follows: FRET or BRET; AF555-labelled pool titrated against the FITC-labelled pool of the same construct, no additive; monomer to dimer; 25 C, 50 mM Tris-HCl pH 7.5, 150 mM NaCl, 1 mM DTT. (BRET reads energy transfer from a luciferase to a nearby fluorophore.)
Data set [3] addresses Cargo binding domain of myosin VI (CBD 1060-1253) (human). The data set is described as follows: fluorescence polarisation; fluorescence anisotropy; unlabelled protein titrated against the FITC-labelled partner (NMVITAIL against FITC-CBD and CBD against FITC-NMVITAIL); 25 C, 50 mM Tris-HCl pH 7.5, 150 mM NaCl, 1 mM DTT. (In general: Fluorescence polarisation rises when a labelled molecule tumbles more slowly, as on binding a larger partner.)

Data set [4] deals with Full-length myosin VI (non-insert isoform), recombinant, co-expressed with calmodulin (human | Xenopus) (UniProt Q9UM54).
Data set [5] addresses T1, NDP52 (Human, UniProt Q13137 1-446).
T1 sequence: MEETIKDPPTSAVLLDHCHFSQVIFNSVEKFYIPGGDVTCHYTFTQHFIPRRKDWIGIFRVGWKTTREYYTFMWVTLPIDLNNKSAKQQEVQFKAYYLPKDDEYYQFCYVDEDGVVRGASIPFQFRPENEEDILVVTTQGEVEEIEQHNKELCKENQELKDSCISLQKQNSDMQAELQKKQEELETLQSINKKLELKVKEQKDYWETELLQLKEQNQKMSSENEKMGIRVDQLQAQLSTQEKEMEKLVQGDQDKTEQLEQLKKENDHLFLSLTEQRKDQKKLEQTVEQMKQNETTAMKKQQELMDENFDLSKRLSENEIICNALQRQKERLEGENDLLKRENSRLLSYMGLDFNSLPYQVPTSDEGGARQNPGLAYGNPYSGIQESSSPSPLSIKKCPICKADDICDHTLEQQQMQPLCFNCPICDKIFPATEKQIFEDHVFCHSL

Data set [6] addresses Myosin VI tail (MVITAIL 814-1253) (human). As to the kind of experiment: FRET or BRET; AF555-MVITAIL titrated against FITC-MVITAIL in the presence of 20 uM NDP52 and DNA; monomer to dimer; 25 C, 50 mM Tris-HCl pH 7.5, 150 mM NaCl, 1 mM DTT.
Data set [7] shares this target. As to the kind of experiment: FRET or BRET; AF555-MVITAIL and FITC-MVITAIL in the presence of 20 uM DNA; monomer to dimer; 25 C, 50 mM Tris-HCl pH 7.5, 150 mM NaCl, 1 mM DTT.
Data set [8] shares this target. The data set is described as follows: FRET or BRET; AF555-labelled pool titrated against the FITC-labelled pool of the same construct, no additive; monomer to dimer; 25 C, 50 mM Tris-HCl pH 7.5, 150 mM NaCl, 1 mM DTT.
For data set [9] the target is unchanged. As to the kind of experiment: FRET or BRET; AF555-labelled pool titrated against the FITC-labelled pool of the same construct in the presence of 20 uM NDP52; monomer to dimer; 25 C, 50 mM Tris-HCl pH 7.5, 150 mM NaCl, 1 mM DTT.
Data set [10] deals with T1, NDP52. As to the kind of experiment: FRET or BRET; FITC-MVI_TAIL constructs and Alexa555-NDP52 (1 uM); 25 C, 50 mM Tris-HCl pH 7.5, 150 mM NaCl, 1 mM DTT.
Data set [11] concerns the target N-terminal tail domain of myosin VI (NMVITAIL 814-1060) (human). The data set is described as follows: fluorescence polarisation; fluorescence anisotropy; unlabelled protein titrated against the FITC-labelled partner (NMVITAIL against FITC-CBD and CBD against FITC-NMVITAIL); 25 C, 50 mM Tris-HCl pH 7.5, 150 mM NaCl, 1 mM DTT.
The target of data set [12] is CBD (Human, UniProt Q9UM54-5 1060-1253). The data set is described as follows: fluorescence anisotropy; FAM-DNA 50 nM; assay buffer, salt, pH and temperature not given in the material (duplex annealing in water or 50 mM Tris-HCl pH 7.5, 150 mM NaCl, 3 mM MgCl2). The following applies: protein: recombinant, tags: His-tag (pET28).
In data set [13] the target is Myosin VI tail RRL/AAA mutant (MVITAIL RRL/AAA) (human). As to the kind of experiment: FRET or BRET; FITC-MVITAIL constructs and Alexa555-NDP52 (1 uM NDP52 by the legend of Fig. 4d); 25 C, 50 mM Tris-HCl pH 7.5, 150 mM NaCl, 1 mM DTT; quadratic binding fit.
For data set [14], the target named is Myosin VI tail, large insert (MVITAIL (large insert) 814-1284) (human). Described as above.
For data set [15], the target named is Myosin VI tail (MVITAIL 814-1253) (human). The data set is described as above.
For data set [16], the target named is Myosin VI tail RRL/ARL mutant (MVITAIL RRL/ARL, R1116A) (human). The description is as above.
The target of data set [17] is Myosin VI tail RRL/RRA mutant (MVITAIL RRL/RRA, L1118A) (human). The data set is described as above.
The target in data set [18] is T2, NDP52 (recombinant) (UniProt Q13137 1-446, Alexa Fluor 555 label in the FRET titration with MVI_TAIL; unlabelled where added as a third component).
T2 construct: NDP52 (SKICH domain, coiled-coil, two zinc fingers); also called Alexa555-NDP52; source: E. coli BL21 DE3, purified (HisTrap, Superdex 200)
T2 sequence (looked up): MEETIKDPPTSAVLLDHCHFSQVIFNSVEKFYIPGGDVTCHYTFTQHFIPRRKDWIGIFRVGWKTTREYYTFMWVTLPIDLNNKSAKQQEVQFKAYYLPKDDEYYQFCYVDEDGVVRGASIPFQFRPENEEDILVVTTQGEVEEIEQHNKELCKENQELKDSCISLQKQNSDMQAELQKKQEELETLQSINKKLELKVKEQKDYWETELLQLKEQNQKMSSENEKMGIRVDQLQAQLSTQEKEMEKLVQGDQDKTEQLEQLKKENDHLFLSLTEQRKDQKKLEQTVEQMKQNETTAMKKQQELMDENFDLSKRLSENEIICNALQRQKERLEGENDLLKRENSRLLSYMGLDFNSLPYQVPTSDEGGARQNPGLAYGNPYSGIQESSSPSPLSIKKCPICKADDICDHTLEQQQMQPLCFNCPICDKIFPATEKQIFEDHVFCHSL
The data set is described as follows: FRET or BRET; FITC-MVI_TAIL constructs and Alexa555-NDP52 (1 uM); 25 C, 50 mM Tris-HCl pH 7.5, 150 mM NaCl, 1 mM DTT. The following applies: both partners purified.

The target of data set [19] is MVITAIL(W1221A) (Human, UniProt Q9UM54-5 814-1253, W1221A). The data set is described as follows: fluorescence anisotropy; FAM-DNA 50 nM; assay buffer, salt, pH and temperature not given in the material (duplex annealing in water or 50 mM Tris-HCl pH 7.5, 150 mM NaCl, 3 mM MgCl2). The conditions noted are these: protein: recombinant; tags: His-tag (pET151), TEV-cleaved; label: 3' FAM on strand A; blunt.
Chain of MVITAIL(W1221A) (Q9UM54 other isoform, or with tags, fused parts or gaps W1221A | W1221A W1221A): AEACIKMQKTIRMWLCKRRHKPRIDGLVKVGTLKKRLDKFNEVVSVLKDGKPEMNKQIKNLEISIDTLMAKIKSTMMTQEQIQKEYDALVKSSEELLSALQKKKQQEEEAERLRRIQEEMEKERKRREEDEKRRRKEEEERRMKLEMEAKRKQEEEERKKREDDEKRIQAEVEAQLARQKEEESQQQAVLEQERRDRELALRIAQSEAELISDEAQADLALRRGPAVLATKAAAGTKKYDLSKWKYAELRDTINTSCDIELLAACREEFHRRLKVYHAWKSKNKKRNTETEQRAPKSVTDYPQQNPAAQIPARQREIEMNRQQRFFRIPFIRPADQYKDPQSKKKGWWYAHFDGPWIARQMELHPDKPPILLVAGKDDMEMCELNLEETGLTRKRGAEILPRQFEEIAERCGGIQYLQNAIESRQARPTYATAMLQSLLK

In data set [20] the target is MVITAIL (Human, UniProt Q9UM54-5 814-1253). The description is as above. The following applies: protein: recombinant; tags: His-tag (pET151), TEV-cleaved; label: 3' FAM on strand A; blunt.
Chain of MVITAIL (Q9UM54 other isoform, or with tags, fused parts or gaps): as the sequence (Q9UM54 other isoform, or with tags, fused parts or gaps W1221A | W1221A W1221A) above, with A408W counted along it
In data set [21] the target is T1, NDP52. The data set is described as follows: fluorescence intensity titration; FAM-DNA 50 nM; assay buffer, salt, pH and temperature not given in the material (duplex annealing in water or 50 mM Tris-HCl pH 7.5, 150 mM NaCl, 3 mM MgCl2). The following applies: protein: recombinant; tags: His-tag (pET151), TEV-cleaved; chain copies: 2; label: 3' FAM on strand A; blunt.

Where [22] appears, read: label: 3' FAM on strand A, blunt.

Consider “N-terminal tail domain of myosin VI (NMVITAIL 814-1060) (domain or fragment)”, for which the values for the Kd in data set [1], in data set [2] and in [3] were 4.5 µM, 3.1 µM and 4 µM, respectively.

Regarding “Full-length myosin VI (non-insert isoform), recombinant, co-expressed with calmodulin (from UniProt Q9UM54-5 1-1253; P0DP33 1-149) (complex)”, the steady-state actin-activated ATPase rate constant of MVI, reduction on addition of NDP52 in [4] is 50%. In [5], this molecule returned a velocity of actin filaments in the sliding filament assay with MVI pre-incubated with / immobilised through NDP52 (0.1, 0.5 or 1 μM); two populations, 50–60 and 90 nm s^−1 of 90 nm/s.

With “Myosin VI tail (MVITAIL 814-1253) (domain or fragment)”, the Kd in data set [6] is 2.5 µM; in data set [7], 29 µM; in data set [8], 27 µM; in data set [9] it was 2.3 µM.

Regarding “MVI_(TAIL) with the leucine of the RRL motif removed (RRA) (domain or fragment)”, in data set [10], the fold decrease in affinity against wild-type MVI TAIL came to 10 fold.

With “Cargo binding domain of myosin VI (CBD 1060-1253) (domain or fragment)”, in data set [11], the Kd was 4.2 µM.

With TTTTTTTTTTTTTTTTTTTT (ssDNA) [dT20], the Kd in [12] came out at 0.12 ± 0.025 µM.

Regarding TCTGGCTCTGGATTACCCGC (ssDNA) [ss20], the Kd in data set [12] (label: 3' FAM) amounted to 0.11 ± 0.035 µM.

B1: NDP52 (1-end) (natural protein)
chain: MEETIKDPPTSAVLLDHCHFSQVIFNSVEKFYIPGGDVTCHYTFTQHFIPRRKDWIGIFRVGWKTTREYYTFMWVTLPIDLNNKSAKQQEVQFKAYYLPKDDEYYQFCYVDEDGVVRGASIPFQFRPENEEDILVVTTQGEVEEIEQHNKELCKENQELKDSCISLQKQNSDMQAELQKKQEELETLQSINKKLELKVKEQKDYWETELLQLKEQNQKMSSENEKMGIRVDQLQAQLSTQEKEMEKLVQGDQDKTEQLEQLKKENDHLFLSLTEQRKDQKKLEQTVEQMKQNETTAMKKQQELMDENFDLSKRLSENEIICNALQRQKERLEGENDLLKRENSRLLSYMGLDFNSLPYQVPTSDEGGARQNPGLAYGNPYSGIQESSSPSPLSIKKCPICKADDICDHTLEQQQMQPLCFNCPICDKIFPATEKQIFEDHVFCHSL
modifications: Alexa Fluor 555 label (site not stated)
For the molecule B1, the Kd was found to be 63 µM in [13]; 9.8 µM in data set [14]; 3.2 µM in data set [15]; 4.6 µM in data set [16]; 21 µM in data set [17].

B2: ds15 (15 bp) (dsDNA)
DNA 1: TTAGTTGTTCTCTGG
DNA 2: CCAGAGAACAACTAA
Regarding B2, the equilibrium dissociation constant (Kd) in data set [12] (setting [22]) came out at 0.5 ± 0.045 µM.

B3: MVI_(TAIL) (large insert) (domain or fragment)
chain: AEACIKMQKTIRMWLCKRRHKPRIDGLVKVGTLKKRLDKFNEVVSVLKDGKPEMNKQIKNLEISIDTLMAKIKSTMMTQEQIQKEYDALVKSSEELLSALQKKKQQEEEAERLRRIQEEMEKERKRREEDEKRRRKEEEERRMKLEMEAKRKQEEEERKKREDDEKRIQAEVEAQLARQKEEESQQQAVLEQERRDRELALRIAQSEAELISDEAQADLALRSLDSYPVTSKNDGTRPKMTPEQMAKEMSEFLSRGPAVLATKAAAGTKKYDLSKWKYAELRDTINTSCDIELLAACREEFHRRLKVYHAWKSKNKKRNTETEQRAPKSVTDYAQQNPAAQIPARQREIEMNRQQRFFRIPFIRPADQYKDPQSKKKGWWYAHFDGPWIARQMELHPDKPPILLVAGKDDMEMCELNLEETGLTRKRGAEILPRQFEEIWERCGGIQYLQNAIESRQARPTYATAMLQSLLK
modifications: FITC label
Turning to B3, in [18], the “fold reduction of binding against wild-type MVI_TAIL” value was 4 fold.

B4: ds40 (dsDNA)
DNA 1: TTAGTTGTTCGTAGTGCTCGTCTGGCTCTGGATTACCCGC
DNA 2: GCGGGTAATCCAGAGCCAGACGAGCACTACGAACAACTAA
Consider B4, for which the Kd in [19] is 0.3 ± 0.03 µM; in [20] it was 2.5 µM; in [12] (setting [22]), 0.1 µM; in data set [21] it was 0.08 ± 0.025 µM.

In the case of TTAGTTGTTCGTAGTGCTCGTCTGGCTCTGGATTACCCGC (ssDNA) [ss40], the Kd in data set [12] (label: 3' FAM) stood at 0.12 ± 0.035 µM.

The term Kd denotes the concentration at which binding is half-saturated.
